The values that follow come from the supplement of paper PMC5998384.

For data set [1], the system named is HeLa Kyoto. Nature of the data set: solubility in G1/S (NP-40 vs SDS abundance) (log2 ratio); higher = more soluble. The note with it: cell cycle stage: G1/S.
The test system of data set [2] is HeLa Kyoto. Nature of the data set: thermal stability score vs G1/S (z-score of summed log2 fold changes over temperatures); higher = more thermally stable than in G1/S.
Data set [3] has as its system HeLa Kyoto. Nature of the data set: melting temperature (median over replicates), in situ; higher = more thermally stable.
The subject of data set [4] is HeLa Kyoto. Put plainly: solubility change mitosis vs G1/S (difference of NP-40 vs SDS log2 ratios) (log2 ratio difference); higher = more soluble in mitosis.
[5] abbreviates: cell cycle stage: early G1 (4.5 h after nocodazole release).
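For melting temperature (median over replicates), in situ in this document: HeLa Kyoto cells synchronized by double thymidine or nocodazole block, proteins quantified by TMT10plex mass spectrometry, three independent biological replicates.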
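For solubility change mitosis vs G1/S (difference of NP-40 vs SDS log2 ratios) in this document: synchronized HeLa Kyoto cells (double thymidine block for G1/S, nocodazole release for mitosis), protein amounts in NP-40 versus SDS lysates quantified by mass spectrometry, three biological replicates.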
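For solubility in G1/S (NP-40 vs SDS abundance) in this document: HeLa Kyoto cells arrested at G1/S by double thymidine block, proteins quantified by TMT10plex mass spectrometry in mild NP-40 versus SDS extracts, three biological replicates.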
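For thermal stability score vs G1/S (z-score of summed log2 fold changes over temperatures) in this document: synchronized HeLa Kyoto cells, proteins quantified by TMT10plex mass spectrometry, three biological replicates, mitosis taken 0.5 h after nocodazole release, G1/S directly after double thymidine block.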

As to “MWRCGGRQGLCVLRRLSGGHAHHRAWRWNSNRACERALQYKLGDKIHGFTVNQVTSVPELFLTAVKLTHDDTGARYLHLAREDTNNLFSVQFRTTPMDSTGVPHILEHTVLCGSQKYPCRDPFFKMLNRSLSTFMNAFTASDYTLYPFSTQNPKDFQNLLSVYLDATFFPCLRELDFWQEGWRLEHENPSDPQTPLVFKGVVFNEMKGAFTDNERIFSQHLQNRLLPDHTYSVVSGGDPLCIPELTWEQLKQFHATHYHPSNARFFTYGNFPLEQHLKQIHEEALSKFQKIEPSTVVPAQTPWDKPREFQITCGPDSFATDPSKQTTISVSFLLPDITDTFEAFTLSLLSSLLTSGPNSPFYKALIESGLGTDFSPDVGYNGYTREAYFSVGLQGIAEKDIETVRSLIDRTIDEVVEKGFEDDRIEALLHKIEIQMKHQSTSFGLMLTSYIASCWNHDGDPVELLKLGNQLAKFRQCLQENPKFLQEKVKQYFKNNQHKLTLSMRPDDKYHEKQAQVEATKLKQKVEALSPGDRQQIYEKGLELRSQQSKPQDASCLPALKVSDIEPTIPVTELDVVLTAGDIPVQYCAQPTNGMVYFRAFSSLNTLPEELRPYVPLFCSVLTKLGCGLLDYREQAQQIELKTGGMSASPHVLPDDSHMDTYEQGVLFSSLCLDRNLPDMMQLWSEIFNNPCFEEEEHFKVLVKMTAQELANGIPDSGHLYASIRAGRTLTPAGDLQETFSGMDQVRLMKRIAEMTDIKPILRKLPRIKKHLLNGDNMRCSVNATPQQMPQTEKAVEDFLRSIGRSKKERRPVRPHTVEKPVPSSSGGDAHVPHGSQVIRKLVMEPTFKPWQMKTHFLMPFPVNYVGECIRTVPYTDPDHASLKILARLMTAKFLHTEIREKGGAYGGGAKLSHNGIFTLYSYRDPNTIETLQSFGKAVDWAKSGKFTQQDIDEAKLSVFSTVDAPVAPSDKGMDHFLYGLSDEMKQAHREQLFAVSHDKLLAVSDRYLGTGKSTHGLAILGPENPKIAKDPSWIIQ [PITRM1]”, in the data set on HeLa Kyoto [1], the “solubility in G1/S (log2)” value came to 0.143. For the same sequence, the thermal stability score in the data set on HeLa Kyoto [2] (setting [5]) was 0.343; in the data set with HeLa Kyoto [2] (cell cycle stage: mitosis), -0.944. Moreover, the figures for the melting temperature in the data set on HeLa Kyoto [3] (cell cycle stage: G1/S) and with HeLa Kyoto [3] (cell cycle stage: mitosis) were 51.4 °C and 50.9 °C, respectively. Also, the “solubility change mitosis (log2)” value in the data set on HeLa Kyoto [4] was -0.084.
With “MWRLRRAAVACEVCQSLVKHSSGIKGSLPLQKLHLVSRSIYHSHHPTLKLQRPQLRTSFQQFSSLTNLPLRKLKFSPIKYGYQPRRNFWPARLATRLLKLRYLILGSAVGGGYTAKKTFDQWKDMIPDLSEYKWIVPDIVWEIDEYIDFEKIRKALPSSEDLVKLAPDFDKIVESLSLLKDFFTSGSPEETAFRATDRGSESDKHFRKVSDKEKIDQLQEELLHTQLKYQRILERLEKENKELRKLVLQKDDKGIHHRKLKKSLIDMYSEVLDVLSDYDASYNTQDHLPRVVVVGDQSAGKTSVLEMIAQARIFPRGSGEMMTRSPVKVTLSEGPHHVALFKDSSREFDLTKEEDLAALRHEIELRMRKNVKEGCTVSPETISLNVKGPGLQRMVLVDLPGVINTVTSGMAPDTKETIFSISKAYMQNPNAIILCIQDGSVDAERSIVTDLVSQMDPHGRRTIFVLTKVDLAEKNVASPSRIQQIIEGKLFPMKALGYFAVVTGKGNSSESIEAIREYEEEFFQNSKLLKTSMLKAHQVTTRNLSLAVSDCFWKMVRESVEQQADSFKATRFNLETEWKNNYPRLRELDRNELFEKAKNEILDEVISLSQVTPKHWEEILQQSLWERVSTHVIENIYLPAAQTMNSGTFNTTVDIKLKQWTDKQLPNKAVEVAWETLQEEFSRFMTEPKGKEHDDIFDKLKEAVKEESIKRHKWNDFAEDSLRVIQHNALEDRSISDKQQWDAAIYFMEEALQARLKDTENAIENMVGPDWKKRWLYWKNRTQEQCVHNETKNELEKMLKCNEEHPAYLASDEITTVRKNLESRGVEVDPSLIKDTWHQVYRRHFLKTALNHCNLCRRGFYYYQRHFVDSELECNDVVLFWRIQRMLAITANTLRQQLTNTEVRRLEKNVKEVLEDFAEDGEKKIKLLTGKRVQLAEDLKKVREIQEKLDAFIEALHQEK [OPA1]”, in the data set on HeLa Kyoto [1], the “solubility in G1/S (log2)” value was -0.149. Besides, the thermal stability score with HeLa Kyoto [2] (setting [5]) came to 1.61; in the data set with HeLa Kyoto [2] (cell cycle stage: mitosis), 0.517. In addition, the melting temperature with HeLa Kyoto [3] (cell cycle stage: G1/S) was determined as 51.3 °C; in the data set with HeLa Kyoto [3] (cell cycle stage: mitosis) it was 51 °C. Moreover, the “solubility change mitosis (log2)” value in the data set with HeLa Kyoto [4] is -0.0649.
Consider “MWRLVPPKLGRLSRSLKLAALGSLLVLMVLHSPSLLASWQRNELTDRRFLQLNKCPACFGTSWCRRFLNGQVVFEAWGRLRLLDFLNVKNVYFAQYGEPREGGRRRVVLKRLGSQRELAQLDQSICKRATGRPRCDLLQAMPRTEFARLNGDVRLLTPEAVEGWSDLVHCPSQRLLDRLVRRYAETKDSGSFLLRNLKDSERMQLLLTLAFNPEPLVLQSFPSDEGWPFAKYLGACGRMVAVNYVGEELWSYFNAPWEKRVDLAWQLMEIAEQLTNNDFEFALYLLDVSFDNFAVGPRDGKVIIVDAENVLVADKRLIRQNKPENWDVWYESKFDDCDKEACLSFSKEILCARATVDHNYYAVCQNLLSRHATWRGTSGGLLHDPPSEIAKDGRLEALLDECANPKKRYGRFQAAKELREYLAQLSNNVR [C3ORF58]”, for which the “solubility in G1/S (log2)” value with HeLa Kyoto [1] was 0.0343. Besides, the thermal stability score in the data set on HeLa Kyoto [2] (setting [5]) is -0.149; in the data set on HeLa Kyoto [2] (cell cycle stage: mitosis), -0.787. Moreover, the melting temperature came to 53 °C with HeLa Kyoto [3] (cell cycle stage: G1/S) and 52.3 °C in the data set with HeLa Kyoto [3] (cell cycle stage: mitosis). Further, the “solubility change mitosis (log2)” value in the data set on HeLa Kyoto [4] was -0.109.
